US10981967B2, “Long-acting conjugate of triple glucagon/GLP-1/GIP receptor agonist” (HANMI PHARM. CO., LTD., priority 2015, dated 2021)
Positions of bridges follow the written chain, without caps; N, C: chain ends. Non-standard residues stand in square brackets, D forms with d. No end group written: not given here. Aib = CC(C)(N)C(=O)O

Assays:
Assay type in all cases: cell-based
human GLP-1 receptor = molecular target: T1, human GLP-1 receptor (Homo sapiens, UniProt P43220); test: In vitro cAMP activity (LANCE cAMP kit) in CHO cells expressing human GLP-1 receptor, relative to human GLP-1; details: long-acting conjugates; relative potency from cAMP EC50 compared to human GLP-1, CHO cells
T1 construct: expressed in transfected cells; host or cells: Chinese hamster ovary (CHO)
Protocol: (§1) The activities of the triple agonists and long-acting conjugates thereof prepared in Examples 1 and 2 were measured by a method of measuring in vitro cellular activities using cell lines, where a GLP-1 receptor, a glucagon (GCG) receptor, and a GIP receptor are transformed, respectively.
(§2) Each of the cell lines above is one in which the genes for human GLP-1 receptor, human GCG receptor, and human GIP receptor were transformed in Chinese hamster ovary (CHO), respectively, and can be expressed therein, and is thus suitable for the measurement of the activities of GLP-1, GCG, and GIP. Accordingly, the activity for each part was measured using the respective transformed cell line.
(§3) For the measurement of the GLP-1 activities of the triple agonists and long-acting conjugates prepared in Examples 1 and 2, human GLP-1 was subjected to a 4-fold serial dilution from 50 nM to 0.000048 nM, and the triple agonists and long-acting conjugates thereof prepared in Examples 1 and 2 were subjected to a 4-fold serial dilution from 400 nM to 0.00038 nM. The culture solution was removed from the cultured CHO cells, in which the human GLP-1 receptor was expressed, and each of the serially-diluted materials was added to the CHO cells in an amount of 5 μL, respectively. Then, a buffer solution containing cAMP antibody was added thereto in an amount of 5 μL and cultured at room temperature for 15 minutes. Then, a detection mix containing a cell lysis buffer was added thereto in an amount of 10 μL for the lysis of the cells and reacted at room temperature for 90 minutes. The cell lysates, upon completion of the reaction, were applied to LANCE cAMP kit (PerkinElmer, USA) to calculate the EC50 value via accumulated cAMP, and the values were compared with each other.

human GCG receptor = molecular target: T2, human GCG receptor (Homo sapiens, UniProt P47871); test: In vitro cAMP activity (LANCE cAMP kit) in CHO cells expressing human GCG receptor, relative to human GCG; details: long-acting conjugates, relative potency from cAMP EC50 compared to human GCG
T2 construct: expressed in transfected cells; host or cells: Chinese hamster ovary (CHO)
Protocol: as §1, §2
as §3, with “GCG” for “GLP-1”

human GIP receptor = molecular target: T3, human GIP receptor (Homo sapiens, UniProt P48546); test: In vitro cAMP activity (LANCE cAMP kit) in CHO cells expressing human GIP receptor, relative to human GIP; details: long-acting conjugates, relative potency from cAMP EC50 compared to human GIP
T3 construct: expressed in transfected cells; host or cells: Chinese hamster ovary (CHO)
T3 sequence (P48546 22-466): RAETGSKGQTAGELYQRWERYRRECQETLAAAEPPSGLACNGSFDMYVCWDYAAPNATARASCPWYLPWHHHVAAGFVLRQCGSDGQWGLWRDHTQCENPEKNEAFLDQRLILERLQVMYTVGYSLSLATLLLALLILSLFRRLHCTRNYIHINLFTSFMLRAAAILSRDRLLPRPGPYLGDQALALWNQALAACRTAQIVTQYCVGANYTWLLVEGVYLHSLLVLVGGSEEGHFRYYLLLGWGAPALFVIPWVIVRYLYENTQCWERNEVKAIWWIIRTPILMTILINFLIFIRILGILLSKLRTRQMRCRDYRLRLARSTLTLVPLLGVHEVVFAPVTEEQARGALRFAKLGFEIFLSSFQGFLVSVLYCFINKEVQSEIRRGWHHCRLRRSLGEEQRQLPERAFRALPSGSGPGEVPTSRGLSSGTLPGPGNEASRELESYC
Protocol: as §1, §2
as §3, with “GIP” for “GLP-1”

T1 sequence (P43220 24-463): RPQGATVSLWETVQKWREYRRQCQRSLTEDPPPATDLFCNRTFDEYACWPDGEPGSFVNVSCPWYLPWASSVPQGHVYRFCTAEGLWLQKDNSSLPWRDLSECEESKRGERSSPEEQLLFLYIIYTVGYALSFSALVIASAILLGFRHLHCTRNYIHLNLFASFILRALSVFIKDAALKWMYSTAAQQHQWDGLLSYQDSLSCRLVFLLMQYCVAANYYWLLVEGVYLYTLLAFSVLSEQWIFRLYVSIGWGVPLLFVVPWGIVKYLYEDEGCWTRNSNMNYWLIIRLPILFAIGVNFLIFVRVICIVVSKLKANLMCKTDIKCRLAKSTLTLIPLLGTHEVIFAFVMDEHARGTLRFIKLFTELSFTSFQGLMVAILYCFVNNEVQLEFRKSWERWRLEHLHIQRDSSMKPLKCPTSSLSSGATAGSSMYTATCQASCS
T2 sequence (P47871 26-477): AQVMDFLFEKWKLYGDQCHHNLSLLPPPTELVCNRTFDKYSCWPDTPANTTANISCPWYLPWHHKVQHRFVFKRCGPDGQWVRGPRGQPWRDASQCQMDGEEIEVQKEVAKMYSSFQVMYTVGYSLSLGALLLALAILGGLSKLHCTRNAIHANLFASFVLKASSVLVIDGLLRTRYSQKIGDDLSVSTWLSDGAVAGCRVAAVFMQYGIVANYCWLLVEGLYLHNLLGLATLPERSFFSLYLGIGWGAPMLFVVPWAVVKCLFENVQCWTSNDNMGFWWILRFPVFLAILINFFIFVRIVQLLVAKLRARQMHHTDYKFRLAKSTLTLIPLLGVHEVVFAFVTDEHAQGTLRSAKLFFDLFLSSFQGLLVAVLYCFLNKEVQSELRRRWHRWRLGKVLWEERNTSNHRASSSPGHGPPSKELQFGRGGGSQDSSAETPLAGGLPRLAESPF

Row | Substance | In vitro activity compared to native peptide (%) vs. GLP-1 (human GLP-1 receptor) [%] | In vitro activity compared to native peptide (%) vs. Glucagon (human GCG receptor) [%] | In vitro activity compared to native peptide (%) vs. GIP (human GIP receptor) [%]
1 | 21 (Y[Aib]QGTFTSDYSKYLDECRAKEFVQWLLDHHPSSGQPPPS; bridge 16-20) [compound 21] | 0.1 | 1.6 | 0.2
2 | 22 (Y[Aib]QGTFTSDYSKCLDEKRAKEFVQWLLDHHPSSGQPPPS; bridge 16-20) [compound 22] | 0.1 | 0.9 | 0.5
3 | 42 (Y[Aib]QGTFTSDYSKYLDEKRAKEFVQWLLDHHPSSGQPPPSC; bridge 16-20) [compound 42] | 3.1 | 23.1 | 1.2
4 | 43 (Y[Aib]QGTFTSDYSKYLDEKRAKEFVQWLLDHHCSSGQPPPS; bridge 16-20) [compound 43] | 2.1 | 13.5 | 0.6
5 | 50 (H[Aib]QGTFTSDYSKYLDEKRAKEFVQWLLDHHPSSGQPPPSC; bridge 16-20) [compound 50] | 15.4 | 6.9 | 0.7
6 | 77 (Y[Aib]QGTFTSDYSKYLDEKAAKDFVQWLLDHHPSSGQPPPSC; bridge 16-20) [compound 77] | 6.7 | 1.7 | 6.6
7 | 96 (Y[Aib]QGTFTSDYSKYLDEKRAKEFVQWLLDHCPSSGQPPPS; bridge 16-20) [compound 96] | 0.3 | 4.0 | 0.3
